The data set deals with the molecule itself. Description: FRET by flow cytometry, mixtures of Annexin A5-FITC and Annexin A5-Alexa568 on PtdSer-coated paramagnetic beads. The procedure:
Formation of two-dimensional lattices on the phospholipids surfaces was assessed FRET (fluorescence resonance energy transfer) analysis. Paramagnetic beads (1-4 μm in diameter) that were coated with a phospholipids bilayer containing PtdSer were incubated with mixtures of Annexin A5-FITC and Annexin A5-Alexa568 or mixtures of M23-FITC and M23-Alexa568. Fluorescence intensity of the beads was then measured by flow cytometry (Coulter Epics XL-MLC™) using an excitation of 488 nm and emission ranges of 515-530 nm (F11) and >600 nm (F13).

B1: Annexin A5 (other)
chain: AQVLRGTVTDFPGFDERADAETLRKAMKGLGTDEESILTLLTSRSNAQRQEISAAFKTLFGRDLLDDLKSELTGKFEKLIVALMKPSRLYDAYELKHALKGAGTNEKVLTEIIASRTPEELRAIKQVYEEEYGSSLEDDVVGDTSGYYQRMLVVLLQANRDPDAGIDEAQVEQDAQALFQAGELKWGTDEEKFITIFGTRSVSHLRKVFDKYMTISGFQIEETIDRETSGNLEQLLLAVVKSIRSIPAYLAETLYYAMKGAGTDDHTLIRVMVSRSEIDLFNIRKEFRKNFATSLYSMIKGDTSGDYKKALLLLCGEDD
modifications: FITC or Alexa568-succinimidylester coupled to amines (positions not stated)
notes: The FRET assay used mixtures of Annexin A5-FITC and Annexin A5-Alexa568 on paramagnetic beads coated with a PtdSer bilayer; also called Annexin A5-FITC; Annexin A5-Alexa568
With B1, the binding result is reported as “binds”.

The values above are taken from patent US20060009381A1 (I P RANDYWYCK B V, published 2006).
